First the molecules themselves.
B1: PR10.1-8E-M9 (structured_RNA)
RNA: GGGUUACCUAGGUGUAGAUGCUCUUAAGUGUAACUUCUCAUAACAUCCGGAGGCUUUUACUUCCGGGGUGGAUCCAUUGGUCUGAACUGCUUCGAA
B2: PR10.1-8E-D3CR (structured_RNA)
RNA: GGGUUACCUAGGUGUAGAUGCUCUUAAGUGUAACUUCUCAUAACAUCCGGAGGCUUUUACUUCCGGGG
B3: PR10.1-8E-M2 (structured_RNA)
RNA: GGGUUACCUAGGUGUAGAUGCUCUUAAGUGUAACUUCUCAUAACAUCCGGAGGCUUUUAGAAGGCCCGACCUAAGUGACGUCUGAACUGCUUCGAA
B4: PR10.1-8E-M10 (structured_RNA)
RNA: GGCAGUGGAUCCAGUAGAUGCUCUUAAGUGUAACUUCUCAUAACAUCCGGAGGCUUUUACUUCCGGGGACCUAAGUGACGUCUGAACUGCUUCGAA
B5: PR10.1-8E-M8 (structured_RNA)
RNA: GGGUUACCUAGGUGUAGUGUGACUUAUCGUAAACUUCUCAUAACAUCCGGAGGCUUUUACUUCCGGGGACCUAAGUGACGUCUGAACUGCUUCGAA
B6: PR10.1-8E-M1 (structured_RNA)
RNA: GGGUUACCUAGGUGUAGAUGCUCUUAAGUGUAACUUCUCAUAACAUCCGGAGGCACGUACUUCCGGGGACCUAAGUGACGUCUGAACUGCUUCGAA
B7: PR10.1-8E-M6 (structured_RNA)
RNA: B5 RNA with U18A, G19U, U20G, G21C, A22U, G29A, U30C
B8: PR10.1-8E-M4 (structured_RNA)
RNA: B6 RNA with C23A, U24C, U25G, A26U, A55U, C56U, G57U
B9: PR10.1-8E-M5 (structured_RNA)
RNA: B5 RNA with G19A, U20C, U27A, C28G, G29U, U30G, A31U

Changes are numbered by the printed parent chain.

Experimental findings from article PMC4345311 are described below.

In the data set the target is HIV-1 protease (PR), wild-type (HIV-1, UniProt P04585 489-587). The data set can be described thus: filter binding.
Regarding B1, the binding result is reported as “no binding”. Regarding B2, the binding result is reported as “no binding”. With B3, the binding result is recorded as “no binding”. As for B4, the binding result is reported as “no binding”. Broadly, the Kd is the free concentration of one partner at which half of the binding sites on the other are occupied at equilibrium, for simple one-to-one binding. A lower Kd goes with higher affinity. Take B5: the Kd came out at 386 ± 63 nM.

As to B6, the binding result is recorded as “no binding”. As to B7, the binding result was “no binding”. B8: the binding result was “no binding”. B9: the binding result is recorded as “no binding”.
